The results in this text go back to patent publication US20240360206A1 (ALZPATH, published 2024).

Numbering of substitutions follows the chain as printed.

Assay [1] addresses T1, full length Tau (Tau441) (UniProt P10636-8 1-441).
T1 construct: also called synthetic full length Tau
Briefly: indirect ELISA on Tau441, antibody titrated. On the technique in general: In an ELISA, binding on a coated surface is turned into a signal by an enzyme label.

Assay [2] concerns the target T2, Peptide C (none).
T2 construct: only Peptide C; also called WZN-1C; T217
T2 peptide: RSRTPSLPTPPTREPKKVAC
Kind of assay: indirect ELISA, peptide coated on the plate, HRP goat anti-rabbit antibody, TMB, read at 650 nm; axes without titles. Here is the method:
(§1) Antibodies were generated and purified. The antibodies were assayed using a standard indirect ELISA protocol. Briefly, peptide antigens corresponding to SEQ ID NOs: 74-81 were diluted to 1 μg/ml in PBS and plated onto a Greiner Bio One Microlon 96 well plate. Peptide antigens were produced by the manufacturer Abcam. WZN-1A and WZN-1B served as targets. WZN-1C, WZN-1D, WZN-1E, WZN-1F, WZN-1G, and WZN-1H served as negative controls. In the peptide antigen sequences, a phosphorylated residue is indicated by (pT) for phosphorylated threonine or (pS) for phosphorylated serine. After blocking with 1% BSA in PBS pH 7.4, antibodies were serially diluted 1 to 4 with an initial concentration of 1 μg/ml. After incubation, unbound antibodies were washed off with 1×TBST and HRP labeled goat anti-rabbit secondary antibody was applied according to the manufacturer's instructions. Subsequently, unbound secondary antibody was washed off with 1×TBST and 3,3′5,5′-tetramethylbenzidine (TMB) was applied for 5 minutes at room temperature and plates were read at 650 nm. Data is seen in FIG. 3.

The target of assay [3] is T3, Peptide D (phosphothreonine at position 4 of the peptide (pT212 by the filing's name)).
T3 construct: also called WZN-1D; pT212
T3 peptide: RSRTPSLPTPPTREPKC
The assay is described as above. The procedure:
as §1

For assay [4], the target named is T4, Peptide A (phosphothreonine at position 9 of the peptide (pT217 by the filing's name)).
T4 construct: also called WZN-1A; pT217a
T4 peptide: RSRTPSLPTPPTREPKC
The description is as above. The procedure: as §1

For assay [5], the target named is T5, Peptide B (phosphothreonine at position 6 of the peptide (pT217 by the filing's name)).
T5 construct: also called WZN-1B; pT217b
T5 peptide: TPSLPTPPTREPKKVAC
The assay is described as above. The procedure:
as §1

T1 sequence (P10636 other isoform, or with tags, fused parts or gaps limits assumed): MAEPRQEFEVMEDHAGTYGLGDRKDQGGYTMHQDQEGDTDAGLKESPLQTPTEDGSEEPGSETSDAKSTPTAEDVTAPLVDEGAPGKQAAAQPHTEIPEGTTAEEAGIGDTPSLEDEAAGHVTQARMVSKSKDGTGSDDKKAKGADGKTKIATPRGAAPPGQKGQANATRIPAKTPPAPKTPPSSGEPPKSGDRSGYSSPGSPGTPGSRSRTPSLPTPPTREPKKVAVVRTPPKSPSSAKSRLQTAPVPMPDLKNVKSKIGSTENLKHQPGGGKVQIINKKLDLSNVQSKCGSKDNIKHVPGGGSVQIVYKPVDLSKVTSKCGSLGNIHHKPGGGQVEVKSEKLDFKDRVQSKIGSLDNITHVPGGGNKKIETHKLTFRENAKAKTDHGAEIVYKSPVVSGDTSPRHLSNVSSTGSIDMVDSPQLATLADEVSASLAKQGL

B1: PT3 (antibody, V domains shown)
VH: EVKLVESGGDLVKPGGSLKLSCAASGFTFSSYAMSWVRQNPEKRLEWVASISKGGNTYYPNSVKGRFTISRDNARNILYLQMSSLRSEDTALYYCARGWGDYGWFAYWGQVTLVTVSA
VL: DIKMTQSPSSMYASLGERVTITCKASQDINRYLNWFQQKPGKSPKTLIYRANRLLDGVPSRFSGSGSGQDYSLTISSLDYEDMGIYYCLQYDEFPLTFGDGTKLELK
With B1, the “EC50 (read off the curve)” value in assay [1] is ~200 ng/mL.

B2: Antibody 6 (antibody, V domains shown)
VH: QSLEESGGRLVTPGTPLTLTCTVSGIDLSTHAMTWVRQAPGKGLEWIGVINPSGSAYYATWVNGRFTISKTSTTVDLKITSPTTGDTAKYFCARDYITAGDYYMDAFDPWGPGTLVTVSS
VL: DIVMTQTPASVSAAVGGTVTIKCQASQSISNQLSWYQQKSGQPPKLLIYRASTLASGVPSRFKGSGSGTEFTLTISDLECADAATYYCQQGYNRDNVDNLFGGGTEVVVKG
notes: Rabbit monoclonal antibody; also called 71H1L2
On to B2, for which the binding result in assay [1] is “no binding (tested: 10^4 ng/mL)”; in assay [2] it was “no binding”.

B3: Antibody 1 (antibody, V domains shown)
VH: QSLEESGGRLVTPGTPLTLTCTVSGFSLSSQKVGWVRQAPGKGLEWIGIINNYGSTYYASWAKGRFTISKTSTTVDLRITSLTAEDTATYFCARDPDGSIVFDIWGPGTLVTVSL
VL: AQVLTQTASPVSAAVGGTVTINCQSSQSVVYNNRLSWFQQKPGQPPKLLIYGASTLASGVPSRFKGSGSGTQFTLTISDVQCDDAATYYCLGSYDCSSGDCHAFGGGTEVVVKG
B3: the binding result in assay [2] is listed as “no binding”.

B4: Antibody 4 (antibody, V domains shown)
VH: B3 VH with S29N, S30N, Q31Y, N52Y, G54S, S55Q, R78K, I79L, L82P, A84T
VL: AQVLTQTASPVSAAVGSTVTINCQSSQSVYSNKRLAWFQLKPGQPPKLLIYGASTLASGVPSRFKGSGSGTQFTLTISDVQCDDAATYYCAGGYDCSTGDCWTFGGGTEVVVTG
In the case of B4, the binding result in assay [2] was “no binding”.

B5: Antibody 3 (antibody, V domains shown)
VH: QSVEESGGRLVTPGTPLTLTCTVSGFSLSSYAMIWVRQAPGKGLEWIGFISRSGITYYASWAKGRFTISKTSTTVDLKMTSLTTEDTATYFCAREFGAVGSDYYRDAFNLWGPGTLVTVSS
VL: DIVMTQTPSSVSAAVGGTVTINCQASQNIYSNLAWYQQKPGQRPRLLIYGASNLASGVPSRFKGSRSGTEFTLTISDLECADAATYYCQGYDYSTAGAYPFGGGTAVVVKG
In the case of B5, the binding result in assay [3], in assay [4], in assay [5] and in assay [2] was “no binding” in each case.

B6: Antibody 2 (antibody, V domains shown)
VH: B5 VH
VL: DIVMTQTPASVEAAVGGTVTINCQASESINSWLSWYQQKPGQPPNLLIYRASTLASGVPSRFSGGGSGTEYTLTISDLECADAVTYYCQSYYEEDGIGYAFGGGTEVVVEG
notes: Rabbit monoclonal antibody; also called 30H10L2
As to B6, the binding result in assay [1] is reported as “no binding (tested: 10^4 ng/mL)”; in assay [2], “no binding”.

B7: Antibody 5 (antibody, V domains shown)
VH: B5 VH with R9G, T15G, P16T, S30N, I34S, M79I, L82P, T89A, F108L, N109R
VL: DIVMTQTPSSVSAAVGGTVTIKCQASQSIGSNLAWYQQKPGQPPKLLIYGASTLESGVPSRFKGSGSGTEYTLTISDLECADAATYYCQSYYEGSDIGYAFGGGTEVVVEG
notes: Rabbit monoclonal antibody; also called 62H10L7
As for B7, the results for the binding result in assay [1] and in assay [2] were “no binding (tested: 10^4 ng/mL)” and “no binding”, respectively.

As a reminder, the EC50 (read off the curve) is the concentration that produces a half-maximal response. Read a high EC50 (read off the curve) as a less potent agent.
